The target of assay [1] is Ggly receptor on IMGE-5 cells. Briefly: [125I]-Ggly binding to IMGE-5 cells in the presence of 2 moles Bi3+/mole Ggly.
Assay [2] deals with Ggly receptor on IMGE-5 cells. Briefly: cell-based or functional assay.

B1: glycine-extended gastrin17 (Ggly) (peptide)
peptide: XGPWLEEEEEAYGWMDFG
modifications: N-terminal pyroglutamate (Z); 125I-iodinated (IODO-GEN) in the receptor binding assay
On to B1, for which the % inhibition of binding by bismuth ions in assay [1] amounted to 50%. In addition, the ED50 (nM), proliferation of IMGE cells, thymidine uptake in assay [2] is 0.8 nM.

The values above are taken from patent US20070031511A1, “Method of treatment” (priority 2003, published 2007).
